# Measurements published in patent US20180280423A1 (NATIONAL YANG MING UNIVERSITY, published 2018).
# B1: Ectopic LTβ (ligand)
# chain: MGALGLEGRGGRLQGRGSLLLAVAGATSLVTLLLAVPITVLAVLALVPQDQGGLVTETADPGAQAQQGLGFQKLPEEEPETDLSPGLPAAHLIGAPLKGQGLGWETTKEQAFLTSGTQFSDAEGLALPQDGLYYLYCLVGYRGRAPPGGGDPQGRSVTLRSSLYRAGGAYGPGTPELLLEGAETVTPVLDPARRQGYGPLWYTSVGFGGLVQLRRGERVYVNISHPDMVDFARGKTFFGAVMVG
# notes: also called pFLAG-LTB product; transfected LTβ; not shown: FLAG tag from the pFLAG-CMV2 vector
# Target: T1, epidermal growth factor receptor (EGFR) (human, UniProt P00533 25-1210)
# T1 construct: whole, on cells; Endogenous EGFR in human HNSCC cells, or wild-type pHA-EGFR where transfected; also called ErbB1; total EGFR
# Test: interaction of transfected LTβ with EGFR (method not named; immunoprecipitation in Methods)
binder,measurement,value
B1,binding result,binds
